± gives the standard deviation of the averaged measurements.

For 116 sequences, protein stability index results are on record in the supplement of paper PMC10724198.
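Note: PSI is a weighted mean of sequencing reads over stability bins, variants kept only with over 10 reads, mCherry proximal and sfGFP distal, peptide attached via GGGS linker.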

This series deals with Saccharomyces cerevisiae. As to the kind of experiment: protein stability index of tFT-peptide fusion (C-terminal peptide) (PSI (0-1 scale)); higher = more stable (slower turnover). The following applies: genetic background: wild type; temperature: 30 C.
As for TLATHCDVHFTR, the protein stability index was determined as 0.734 ± 0.077.

Sequence TLDKGRFSPAHL registered a protein stability index of 0.754 ± 0.049.

The sequence TLDTICNTTKQR yielded a protein stability index of 0.675 ± 0.047.

TLFPPLCVFSFC: the protein stability index turned out to be 0.587 ± 0.03.

TLFSNILRSPHS came in with a protein stability index of 0.696 ± 0.035.

As for TLGALEVSVYET, the protein stability index is 0.614 ± 0.0097.

The sequence TLGLLPDVCVEL returned a protein stability index of 0.683 ± 0.021.

With TLGSSTPFPCFP, the protein stability index is 0.716 ± 0.059.

In turn, TLHEDVMFYSRM showed a protein stability index of 0.6843 ± 0.0067.

TLKPTHAPSPPP returned a protein stability index of 0.672 ± 0.021.

Consider TLLSPRRHPFAR, for which the protein stability index is 0.674 ± 0.022.

Sequence TLLVLGLSWGLP gave a protein stability index of 0.618 ± 0.044.

TLPEVELTRQPI gave a protein stability index of 0.747 ± 0.014.

TLPPPPLSTPTL yielded a protein stability index of 0.643 ± 0.1.

Sequence TLPPPSLPPSSS yielded a protein stability index of 0.652 ± 0.071.

In the case of TLRILTRRGLVP, the protein stability index amounted to 0.703 ± 0.12.

In turn, TLSHPAHLKPMR gave a protein stability index of 0.669 ± 0.051.

TLSQILVSSSLS: the protein stability index was determined as 0.5896 ± 0.0019.

TLSSVSEKVVHL yielded a protein stability index of 0.675 ± 0.019.

For the sequence TNGHNGQENGEE, the protein stability index was 0.602 ± 0.06.

With TNTQRYRKTRST, the protein stability index is 0.721 ± 0.054.

Sequence TNYQKANIRINN showed a protein stability index of 0.667 ± 0.035.

Sequence TPAPFSSHLVRR showed a protein stability index of 0.723 ± 0.083.

As to TPASSLFRCASR, the protein stability index came to 0.656 ± 0.028.

Consider TPATRCLASDSR, for which the protein stability index was 0.766 ± 0.11.

For the sequence TPDVLGPLFPGD, the protein stability index is 0.642 ± 0.099.

The sequence TPFLLHPPSPDL registered a protein stability index of 0.607 ± 0.051.

As for TPGYWVPPPTIP, the protein stability index was 0.66 ± 0.027.

As for TPLLAALRPTTS, the protein stability index stood at 0.764 ± 0.07.

Consider TPLPPEHLPRSR, for which the protein stability index was found to be 0.661 ± 0.031.

The sequence TPMDVEVPIAPI yielded a protein stability index of 0.753 ± 0.063.

TPNKKTGNQYPG showed a protein stability index of 0.685 ± 0.038.

Regarding TPNLHPPSAATP, the protein stability index amounted to 0.668 ± 0.038.

Consider TPNYPLHPTKKI, for which the protein stability index was found to be 0.681 ± 0.0084.

Consider TPPAEGTSQTKL, for which the protein stability index is 0.659 ± 0.054.

Turning to TPPFPPSPFLTL, the protein stability index came out at 0.783 ± 0.039.

As to TPPPFRLPAPSL, the protein stability index stood at 0.71 ± 0.037.

In turn, TPPPLSAPSYAG displayed a protein stability index of 0.697 ± 0.014.

TPPPPPPFPLPP: the protein stability index was found to be 0.654 ± 0.031.

The sequence TPPPSSLVIFFI came in with a protein stability index of 0.675 ± 0.11.

The sequence TPPRLLLPAATT displayed a protein stability index of 0.7244 ± 0.0061.

With TPPSPPLPNQLP, the protein stability index was determined as 0.696 ± 0.27.

For TPRLVFFLPLLP, the protein stability index is 0.658 ± 0.029.

Regarding TPRSPFPPLPPP, the protein stability index is 0.698 ± 0.049.

For the sequence TPSLLPSPPFPL, the protein stability index was determined as 0.733 ± 0.02.

As for TPSPAPPTPFTP, the protein stability index worked out at 0.659 ± 0.023.

On to TPSSDFKPTGVR, for which the protein stability index turned out to be 0.654 ± 0.054.

In the case of TPTFALIHPTET, the protein stability index came out at 0.745 ± 0.031.

TPTPLTRRPTQV: the protein stability index came to 0.673 ± 0.041.

TPVPPLLSRCYP had a protein stability index of 0.691 ± 0.044.

The sequence TPVSTNHFYTLE gave a protein stability index of 0.613 ± 0.0094.

TPWGPGAAAAPP yielded a protein stability index of 0.684 ± 0.043.

For TQKKSTQLIKKK, the protein stability index was 0.698 ± 0.067.

As for TQRTSRDPLRAP, the protein stability index was found to be 0.652 ± 0.016.

TQSYLVSLRCGF returned a protein stability index of 0.796 ± 0.13.

TRDLWWNVRVRA returned a protein stability index of 0.543 ± 0.015.

For the sequence TRFLWYFVPTTK, the protein stability index was 0.704 ± 0.071.

In turn, TRGCIRWRVVRR returned a protein stability index of 0.7 ± 0.035.

Turning to TRLSTPGYLILS, the protein stability index was determined as 0.724 ± 0.016.

Sequence TRRHKPNSGTRP had a protein stability index of 0.69465 ± 7.1e-06.

TRSNEERKGKKS: the protein stability index came to 0.731 ± 0.14.

Regarding TRTFRPPPALPH, the protein stability index is 0.691 ± 0.068.

TRTGSTPRGSTR: the protein stability index amounted to 0.684 ± 0.069.

For TRYIRKSKTKGA, the protein stability index came to 0.643 ± 0.014.

The sequence TSAASPVRYGGS returned a protein stability index of 0.65 ± 0.014.

Take TSFNQCRVFCRT: the protein stability index turned out to be 0.614 ± 0.049.

As to TSLSVGVFSSPV, the protein stability index was determined as 0.647 ± 0.02.

In turn, TSPLPRPPPPSY registered a protein stability index of 0.61 ± 0.043.

For TSPPPLPLPSLR, the protein stability index is 0.686 ± 0.013.

In turn, TSPTIPSTPFSN yielded a protein stability index of 0.704 ± 0.087.

Regarding TSSHLLFISSMI, the protein stability index turned out to be 0.638 ± 0.034.

Turning to TSSPHGQSVTEP, the protein stability index was found to be 0.67 ± 0.05.

In the case of TSSRHNEVIKGC, the protein stability index was 0.706 ± 0.033.

Take TSTQVMYVSCCL: the protein stability index was found to be 0.63 ± 0.014.

The sequence TSVFPLFSPLRS returned a protein stability index of 0.721 ± 0.029.

Regarding TSWGSRWLPYAS, the protein stability index was 0.665 ± 0.025.

With TTFHLCLFQKSS, the protein stability index amounted to 0.584 ± 0.0071.

Sequence TTGGRGSRGGGR registered a protein stability index of 0.723 ± 0.039.

The sequence TTKKMVRIVSTV displayed a protein stability index of 0.571 ± 0.052.

As for TTPPPPPRHPAP, the protein stability index turned out to be 0.696 ± 0.019.

In turn, TTPTPPPALPLP gave a protein stability index of 0.69 ± 0.019.

In turn, TTQGICWMAKGV returned a protein stability index of 0.695 ± 0.0088.

Turning to TTTQIIRISKSR, the protein stability index came out at 0.673 ± 0.044.

With TTYKRRTSKTLS, the protein stability index came out at 0.679 ± 0.024.

Consider TVCGWSHLFVYN, for which the protein stability index was determined as 0.669 ± 0.026.

The sequence TVFGLLHALLYS displayed a protein stability index of 0.724 ± 0.037.

Regarding TVGLSLGRGSGD, the protein stability index is 0.67 ± 0.024.

Consider TVGSLNSEIAGK, for which the protein stability index was determined as 0.691 ± 0.057.

TVIDVIKLMLHL returned a protein stability index of 0.583 ± 0.044.

Sequence TVKYVVSTRAFI gave a protein stability index of 0.627 ± 0.044.

In the case of TVRFYHGSFRAP, the protein stability index came out at 0.727 ± 0.062.

As for TWGCAGAIRSVG, the protein stability index was determined as 0.689 ± 0.094.

The sequence TWPSGRASGHVG gave a protein stability index of 0.702 ± 0.0079.

Turning to TYFMSAFWPPGV, the protein stability index was 0.631 ± 0.03.

In turn, TYGRPICFSFKR gave a protein stability index of 0.701 ± 0.049.

TYKNTVTRTKAY gave a protein stability index of 0.658 ± 0.02.

In turn, TYRGKIVAPGVL came in with a protein stability index of 0.656 ± 0.053.

The sequence TYSTDRPGLHTW registered a protein stability index of 0.698 ± 0.074.

On to TYTPQVSSVFPI, for which the protein stability index worked out at 0.698 ± 0.018.

In the case of VACSVVVPGLGG, the protein stability index was 0.69 ± 0.017.

For the sequence VAGATGRWIGHG, the protein stability index is 0.6771 ± 0.0045.

VAGGLRGLGLRA displayed a protein stability index of 0.67 ± 0.053.

The sequence VAGGWVPGRGEG had a protein stability index of 0.69 ± 0.025.

On to VAGWDRETGAWG, for which the protein stability index is 0.58 ± 0.083.

VAIRLLCSPLGK returned a protein stability index of 0.64 ± 0.029.

In the case of VAIVGCVGKLIR, the protein stability index worked out at 0.6468 ± 0.0036.

VAKFYQVLMSEG returned a protein stability index of 0.684 ± 0.014.

In turn, VALNCWGYQWMG yielded a protein stability index of 0.689 ± 0.04.

Sequence VALSFYVLRRVP had a protein stability index of 0.594 ± 0.015.

In the case of VALTYRSAGKWA, the protein stability index was 0.693 ± 0.058.

As for VAMAGQQLYVTI, the protein stability index worked out at 0.665 ± 0.07.

For the sequence VAPPPAPFPPIP, the protein stability index was 0.627 ± 0.023.

As to VARADLVVTFRI, the protein stability index stood at 0.703 ± 0.073.

The sequence VASKAGVLFGIR yielded a protein stability index of 0.673 ± 0.12.

For the sequence VAVAAPVVRAVI, the protein stability index was 0.69 ± 0.054.

In the case of VAVPGRFTGEGV, the protein stability index turned out to be 0.649 ± 0.061.
